According to article PMC9891525 (PLOS Pathogens, 2023):
Substitutions are numbered along the chain they refer to.

B1: REGN10987 scFv combinatorial variant d1 displayed on HEK 293T cells (scFv, V domains shown)
VH: QVQLVESGGGVVQPGRSLRLSCAASGFTFSNYAMYWVRQAPGKGLEWVAVISYTGSNKYYADSVKGRFTISRDNSKNTLYLQMNSLRTEDTAVYYCASGSDYGDYLLVYWGQGTLVTVSS
VL: QSALTQPASVSGSPGQSITISCTGTSSDVGGYNYVSWYQQHPGKAPKLMIYDVSKRPSGVSNRFSGSKSGNTASLTISGLQSEDEADYYCNSLTSIYTWVFGGGTKLTVL
B2: REGN10987 scFv combinatorial variant d3 displayed on HEK 293T cells (scFv, V domains shown)
VH: B1 VH with N57H
VL: B1 VL
B3: REGN10987 scFv combinatorial variant d6 displayed on HEK 293T cells (scFv, V domains shown)
VH: B1 VH with T54I
VL: B1 VL
B4: REGN10987 scFv combinatorial variant d2 displayed on HEK 293T cells (scFv, V domains shown)
VH: B1 VH with T54D, N57H
VL: B1 VL
B5: REGN10987 scFv combinatorial variant A1 displayed on HEK 293T cells (scFv, V domains shown)
VH: B1 VH with T54D, N57F, L106N
VL: B1 VL with Y97S
B6: REGN10987 scFv combinatorial variant A2 displayed on HEK 293T cells (scFv, V domains shown)
VH: B1 VH with T54D, N57T, L106N
VL: B1 VL with Y97S
B7: REGN10987 scFv combinatorial variant d8 displayed on HEK 293T cells (scFv, V domains shown)
VH: B1 VH with T54L
VL: B1 VL

Biological target: biotinylated recombinant SARS-CoV-2 wild type spike RBD (SARS-CoV-2, wild type, UniProt P0DTC2, biotin (biotinylated; detected with streptavidin-FITC))
Assay: flow cytometry on cells
Settings: one partner purified

Does B1 bind?
Result: binds

Does B2 bind?
Result: binds

Does B3 bind?
Result: binds

Does B4 bind?
Result: binds

Does B5 bind?
Result: binds

Does B6 bind?
Result: binds

Does B7 bind?
Result: binds
